These results are taken from the DeepSol protein solubility set.

This data set is described as follows: soluble on expression in E. coli; label from the status in PepcDB or PDB records.
As to “MVGLADVAVLYSGGKDSNYALYWAIKNRFSVKFLVTMVSENEESYMYHTINANLTDLQARALGIPLVKGFTQGEKEKEVEDLKRVLSGLKIQGIVAGALASKYQRKRIEKVAKELGLEVYTPAWGRDAKEYMRELLNLGFKIMVVGVSAYGLDESWLGRILDESALEELITLNEKYKVHVAGEGGEFETFVLDMPLFKYKIVVDKAKKVWEPCTSSGKLIIEEAHLESKLEHHHHHH”, the “soluble on expression in E. coli” value is on record as “soluble”.

Take “MAHHHHHHMSRHPLSRHINTSSVKLKIVKCKLFDIGEGISEVEITQWNKNEGDNVSEMETLLTVQSDKAAVDITSKYSGVLVKRYAEEKDVIKIGSYFCEIDTEDEVGEAAEEVVANEVADEADGRVDPGGPLSPAKVTQQGSKAPTVKASPGVKKKAQEYKLDVDAIGSYFSKEAITMLDVELYHQKVKSGEISNAGSDFNGEVLEEVPLKGIKLAMCKCMNDSLSIPLFHLNEKYNVQNLLSARNVIKKSVLQKDNVNVTLTSVLIKLISTVLKDFPLLNSKFDSQKNAYTIFKSHNVCVAMDTPNGLLVPNIKQVESKNVVEIQKELTSLRDKALQMKLSKSDISGGTITVSNFGVIGGTFATPIVFENQACIIGLSKIQKQLLLKNEKKELTALSDILVADVMNLTFGADHRFVDGATLAQFSKKLKEVVEGVTSLDPYAA”: the “soluble on expression in E. coli” value is “not soluble”.

As to “MGSDKIHHHHHHMNIHYYLIINEQASSGNGRKVARKVIQQLKQQELKYTALYTDYAGHEKELTKELAETTLLPWSEDLDVSTFPILVVLGGDGTLHNVINSLLPYDSTIPLSYIPCGSGNDFARGVGLSRNIDKALHQILRTRRPKEIQTIHYVEANQEEIGLATNNVGLGLDAAIVEKTNESSSKKALNKFKLGSLSYISSIIHVFFRQKGFPILVEMNGKQYTFNRAFLCTVTNHPYFGGGVSIMPTANPRKAVVDLVVVERINIFKILWLIFLLLRQKQGKSKHFHHFQSSKIRIVSTIPQTIHADGEILGKRSIDMVYTTQKRLFWF”, the “soluble on expression in E. coli” value is “not soluble”.

Turning to “MGRVTLRITGTQLLCQDEHPSLLAALESHNVEVEYQCREGYCGSCRTRLVAGQVDWITEPLAFIQPGEILPCCCRAKGDIEIEM”, the “soluble on expression in E. coli” value is “not soluble”.

With “YTDEEWGFLQNQMICDLCEGYAIYRPRYILPDYNVYIQKGCEFLELPPPKDLDEALDGLLILYSHVPSITTYPVYIGRLDVLLEPFITDEEKDYIKIKRFLNHIDKTVPDSFCHANIGPYDTKAGRLILRAVIDLEAPTPNMTIRYDKSKTSREFAELAAKACLLVSKPSFANDAYYISDLGEEYGVASCYNALPECGGAYTLTRLRLGTIARTCKSADEMLNELLPRVAKCALSTMDKRHKFVVEESNFFNSSFLEKEGFIKRTNFTGMFAIVGLADATNHLLQCEGLNETFGKSVRGDEIATAIMDKLKEITDAHEGVYAERTGNRYLLHAQVGASNHEEDKRNAPAHRIRVGEEPTLLAHLKQSAPFHKYFPSGTGDLFAFDQTYVDHCDAVVDIIDGAFSLGYRYITTYLKNTDLIRVTGYLVKKSEVEKYRKGEVALR”, the “soluble on expression in E. coli” value is “not soluble”.

With “MGSDKIHHHHHHMDHLPPLRLLVTFEAISRHGSMRDAAQRLNVTQPAVSQALKALEDHVGVALFDRSVRPARLTDAGEMLSRAVREGLGRIAATLEDIRALHAIGERQVTVSCTLGMATYWLMPKLPMFYADYPELTVNVQAPATDLPVLSPGIDVALRYGRGGWREGRTEKLFAEVICPVGAPALVERLLAEGATLAEAPLIHVRNPHNDHWAGWEDYLQARGIQRPRGGGQIFNNYVQAAQAIYDGRGLMLGWRSITGQAERDGALRAWPDGALDLGTSYFVTMPTTPSQDTLLFVDWVRKAAATV”, the “soluble on expression in E. coli” value was “not soluble”.

In the case of “LPKNLMVRLRSNTEPLSKKLRVVADYVLENAHEVQYQTITDLAFNTKTSEATVVRLCRDLGYKGYSDFRMALAVDLSQSANQSQPKMDGDICEVSAQSAVDSLMDTAKLIDRAALNRICELVHGAK”, the “soluble on expression in E. coli” value is listed as “not soluble”.

Consider “MADVPDQVDINVNVVEKPTGAIMFGAGYSDREGIILNGSIAQNNILGTGNFLSLQVNTGSVNKVISASFNNPYYTINGVSLGLEAFKRDINTRSLSSVGMFNTDTTGANIRFGIPVAENDIVSLGLGYEHTKIDLRDDSPQRFKDFVDQFGKTSNNLPITLSWARDRRNSAIWTTSGMTQRLFGEFGLPFGDLNYYKVSYEQRWFFPVTKMFTLMLNGEVGVGDGYSDKPLPFFKNFFAGGFNSVRGYNINTLGPRDSDDRVLGGSKRIVGNIEVLFPVPFMKEDKSVRLSAFADGGTIVNSFSGLGFDDFRYSAGLAATWISPMGPLKFSVAQPLNNQSGDKLQRFQFQFGQTFLEHHHHHH”, for which the “soluble on expression in E. coli” value is “soluble”.

On to “MSLSFTGLEGTRVLVADDNFTSRAILKEVLESLRFDVTLAESGEEAVDLVQKTAEPFKVVLLDWRMPGLDGLACARHIRQLDLPVRPTILIITAYGREEVLGEIPSEIIDGVLLKPVARSLLLNTILDALPEYSSRPEQESRIIQIDTAQLRQELADTSVLVVEDNKINRQIAKELLEGVGVRVTLAGDGLEALALVENYDFDLIFMDIQMPRMDGLEACRRIRQLQHKKQPPVVAMTAHALAGDRETSLRAGMNDHITKPIDPDELYAALANWIKRNHAEGHHHHHH”, for which the “soluble on expression in E. coli” value was “soluble”.

For “MGSDKIHHHHHHMGEELPVSQPVDQRPLEHQDHCQAAEPAAMDPPAGEDFYEKDFITYLSDENEQEISRAFIVANPGMVKFHFVDKVYEQLALKDKQVDTAIYSEVLPDPPLSQAIKIAKQMKKFAPDTIIAIGGGSALDVSKIARYIYEYSLDQEDGWLDIYDNVSELIKELQQKFVDIRKRIVKFKHETRTSLVMTRSLKAPS”, the “soluble on expression in E. coli” value was “not soluble”.

With “MEKPVICRIKEIIEESPTVKTFVVDKDFDFKPGQFAMLWLPGVDEKPFGFSSKNSFSVARVGEFTKKMHELKEGDIIGVRGPYGTYFEPIGDKVLAVAGGIGAAPIITAVEEFSKQGIEITTILGARTKEELLFLDRFEKVSRLEICTDDGSFGFKGFTTEKMKEVLKEEKFDLIITCGPEIMMKKVVEIANEYNIPVQVSMERYMKCGIGICGQCCVDDEGLCVCKDGPVFWGDKLKFIREFGKYKRDASGKKIYY”, the “soluble on expression in E. coli” value is reported as “not soluble”.

Regarding “MQDFDFSFNPKACEGCGAKCCVGESGYIFLNIQEMQQISAFLKLELEEFSQKYVKKVGYKFSLLEKDAKELGLACVFLDLETKKCQIYSVRPKQCQTFPFWEGVKTFSKEQKEAFCQSCPGITQKTKETKVRLEHHHHHH”, the “soluble on expression in E. coli” value was “not soluble”.

As for “MDVEVKNKANRRHVGHNLQKIRVYFGMKQEALAADLGVNQQVISKIEKQEEIEEGLLNQIASVLGISAEVIKDFDVEKAIYNINNIRDNTFEQGATSIAQQFNPLDKIVELYERLLQSEREKIELLKKR”, the “soluble on expression in E. coli” value is recorded as “not soluble”.

As for “MRQSISNDVATISRISAVPAILQVITESTGLGFAAVARVTEDSWTACAVLDNLGFGLKPGGELELISTICHEIRASHKPVVIDHVAEDELFCAHHTPRRYNFQSYISIPIFLTDGSFFGTICALDPKPAKLTGTPIEAMMVSFARLLALQIEAEENMQRVQ”, the “soluble on expression in E. coli” value is given as “not soluble”.

“MGSDKIHHHHHHMVLLILKFHGESVKIKPECAICIIRQVVDAANEITDDEREQFRLIKSTMEVIKDVYGESAVPAWMGTVVHRYLKKISNNNDPYKNLKEKANKIALQYLDKVREMSNTDDELERLRKKVLATIAGNVIDFGAYSTGINIEKLIEDTLNGELKIDNSRKLLNDLKDKNIKKILYICDNAGEIIFDRVLMEEIKKYDKDIVAVVKGKPILNDATLEDAKIAKIDEIAKVITTGSDIIGIILEECSEEFLKEFESADLIIAKGMGNYESLTEYEDKIDKPIYYILKAKCKPVAENIGVDVGDNVLLKR”: the “soluble on expression in E. coli” value is “not soluble”.

For “MNQLNWKDVTPSFEQYEDILKSASSLPKKKFVELQPRLLATVERFKKIKGLTRVLVINCADNTVYRKFICDVVTDGLEPTIMTESLDAKLLFDRYSVDLKGDVVVEAGLLSKAN”, the “soluble on expression in E. coli” value is given as “not soluble”.

In the case of “MELSPAERQLLLAHRLAVFDGCVVYDAQPPVSAEHVQRLAEGLAGPIPEDLLRLWRTCFGGRLGYDLEVDYDGHRHPFSFSELFYPDSDGYHDLWGWIEHERELAAEAAAEEGRDWNGKLAYLPFGGFEYLERLYVCVEPGPEHGAVIAWSHGLPPAWAGRLHQDSVTRLADDVGGLFRLLSFEQDPFDAENACGVADELLEALDALEAAGEPGKALKGRLEVLLRQRILDWRPALADGSLAAEPRLRQLALAEAAQDGDIDLLQRLRDAGCDFAETLRGRGGVLEACLARGRLEAARWLLDQGVAVHQDSLQIGAAHLDAVLAERLLRLGAISDPNTVLLALQYGDADAARIMARPLLEESPARANALRLALASRAERERSDARRVRSGKMGSNRSPDDYLALAERLERFLAELPG”, the “soluble on expression in E. coli” value was “not soluble”.

As to “MKLKAMYSFLSDDLAAVEEELERTVRSEYGPLGEAALHLLQAGGKRIRPVFVLLSARFGHYDFERIKHVAVALELIHMASLVHDDVIDDADVRRGRPTIKARWSNRFAMYTGDYLFARSLERMAELDSPRAHQVLAKTIVEVCHGEIEQIKDKYRFDQPLRTYLRRIRRKTALLIAASCQLGALAAGAPEAVANRLYWFGHCVGMSFQITDDILDFTGTEEQLGKPAGSDLQQGNVTLPVLYALCDEQVRAKITAVNADTDAEEMAAVLAAIKQTDAIERSYALSDRYLEKALRLLGELPANEARTLLHDLALYIGKRDY”, the “soluble on expression in E. coli” value is given as “not soluble”.

Take “AAQTTAAVEDMSMGAEDAPVTIVEYASFTCPHCANFEKEVLTPLKRDYIDTGKVRFTFREVYFDRYGLWAAMVARCGGEMRYFGIADLIFEQQKEWVTNDPAQVATNLRKIGKTAGLDDAALDACMNDQAKAEAMVAAFQKNSQADDITATPSLIINGTKHSNMSYEELKKIIDAELAK”: the “soluble on expression in E. coli” value is on record as “not soluble”.

As to “GPGSMAHCCFLIYPLAKVADESFLQLLFDDSVKRSAFLGYPPRRFAIVELEESQNEAVLRAIGARDDDGRVEAREDNADTPFVDLFTRTGAKKGTDRNEPIGLRMGCIPHLSQVRFRRTYLRVIVSPVTIDELFGCVQKDSNHVKKEKRSLKRSRHTDEDAGPWVPRWPVANGDPTLAGRVEVVSMTGASRAGLSGDPEDERYREPYAECSGGPVCNMSPPKTFLSDDSAGDAAGRRALDVSVQNLIRELGFDK”, the “soluble on expression in E. coli” value is recorded as “not soluble”.

In the case of “SDNISLEYFEEAVCYMLQHPQVKGPGIGLLGISLGADICLSMASFLKNVSATVSINGSGISGNTAINYKHSSIPPLGYDLRRIKVAFSGLVDIVDIRNALVGGYKNPSMIPIEKAQGPILLIVGQDDHNWRSELYAQTVSERLQAHGKEKPQIICYPGTGHYIEPPYFPLCPASLHRLLNKHVIWGGEPRAHSKAQEDAWKQILAFFCKHLGGTQKTAVPKL”, the “soluble on expression in E. coli” value was “soluble”.

For “MREVISIHVGQAGVQIGNACWELYCLEHGIQPDGTMPSDQQADGESFTTFFSDTGNGRYVPRSIFVDLEPTVVDEIRTGTYKKLFHPEQMITGKEDAANNYARGHYTVGKELIDTVLDRIRRLADNCSGLQGFFVFHSFGGGTGSGFTSLLMERLSVDYGKKSKLEFSIYPAPQVSTAVVEPYNSILTTHTTLEHSDCAFMVDNEAIYDICRRNLSVDRPSYTNLNRIISQVVSSITASLRFDGALNVDLNEFQTNLVPYPRIHFPLAAYTPLISADKAYHEALSVNDITNSCFEPANQMVKCDPRHGKYMAVCLLYRGDVVPKDVNTAIAAIKTKRTIQFVDWCPTGFKVGINYQPPTVVPGGDLAKVPRAVCMLSNTTAIAEAWSRLDYKFDLMYAKRAFVHWYVGEGMEEGEFTEAREDLAALEKDYEEVGADSNEGGNEEEGEEY”, the “soluble on expression in E. coli” value is listed as “not soluble”.
